Experimental data as given in patent US20150010525A1, “Catalytic Tagging System to Study Macro-Molecular Interactions Using Engineered Ubiquitin Ligase and Ubiquitin-Like Proteins to Facilitate Substrate Identification” (THE REGENTS OF THE UNIVERSITY OF CALIFORNIA, priority 2012, published 2015).
Values belong to the molecule of their own block, whether it stands above or below them. Where a SMILES comes first, the peptide text is derived from it. The star is where a group is joined. Cbz = O=C(OCc1ccccc1)*

Assays:
[1] = system: proteasome; assay: PGAM5(Δ24) ubiquitination in HeLa cells; type: cell-based; details: HA-Ubiquitin and PGAM5(Δ24)-Myc
Experimental: HeLa cells are transiently co-transfected with HA-Ubiquitin, PGAM5(Δ24)-Myc, with or without XIAP or the treatment of MG132. Ubiquitination of PGAM5(Δ24)-Myc are addressed by immunoprecipitating with Myc antibody then blotting with HA antibody.
HeLa cells were transfected with Lipofectamine 2000 (Invitrogen). Cells were lysed either in M-PER mammalian protein extraction buffer (Thermo) or NP40 buffer (50 mM HEPES pH 7.4, 150 mM NaCl, 1% NP40), supplemented with protease inhibitor cocktail (Thermo). 10% SDS-polyacrylamide gel (PAGE) combined with MOPS running buffer was used to separate full length PGAM5 from the truncated form for immuno-blotting analysis. 4-12% SDS-PAGE gels were generally used for all other analysis. Immuno-precipitation with anti-Myc tag antibody (cell signaling) was performed with a standard procedure using manufacture's instructions.

[2] = system: Jurkat and HeLa cells; assay: Cytosolic PGAM5(Δ24) immunoblot in apoptotic cells; type: cell-based; details: 1 μM STS, 4 hours
[3] = biological target: T1, GST-XIAP (Homo sapiens, UniProt P98170); assay: In vitro GST pull down; type: binding; details: recombinant proteins
T1 construct: made in house
Text: (§1) FIG. 12 illustrates the identification of the proteolytic form of PGAM5 as an XIAP and cIAP1 substrate in vitro. […] Overall, 15 unique peptides from PGAM5 were recovered and account for 43% of the entire protein sequence. (B) An example of LC-MS/MS spectrum from endogenous PGAM5 N-terminal peptide after subtiligase labeling and positive enrichment. A non-natural amino acid, 2-aminobutyric acid (Abu), is a designed tag showing characteristic labeling by subtiligase. (C) PGAM5 is cleaved into a truncated form in cells. Jurkat cells were transiently transfected with C-terminal Myc tagged full length PGAM5 or PGAM5 (Δ2-24). […] (D) N-terminal amino acid sequence alignment of PGAM5(Δ24) and other known evolutionarily conserved IBM sequences. Reaper, Hid, and Grim are Drosophila proteins that bind DIAP1, the Drosophila IAP. Amino acids are colored according to their chemical properties. (E) XIAP binds PGAM5(Δ24) but not the full length PGAM5. Recombinant GST fused XIAP, PGAM5(FL), and PGAM5(Δ24) were used for in vitro GST pull down experiments. (F) PGAM5(Δ24) binds to XIAP and cIAP1 independent of the RING domain. […] The resins were washed and proteins were eluted and analyzed with SDSPAGE and coomassie blue staining. […] The ubiquitination assay was performed in vitro and PGAM5 is detected with an anti-His antibody.

[4] = biological target: XIAP (Homo sapiens, UniProt P98170); assay: In vitro PGAM5 ubiquitination assay with XIAP; type: biochemical; details: 50 nM UBE1, 200 nM UbcH5b, 700 nM XIAP, 1.5 μM PGAM5-His6
Text: as §1, with “antibody. […]” for “antibody.”

[5] = biological target: T2, cIAP1 (Homo sapiens, UniProt Q13490); assay: In vitro PGAM5 ubiquitination assay with cIAP1; type: biochemical; details: 50 nM UBE1, 200 nM UbcH5b, 700 nM cIAP1, 1.5 μM PGAM5-His6
T2 construct: expressed in transfected cells; host or cells: HEK293
Text: as §1, with “antibody. […]” for “antibody.”

[6] = biological target: T2, cIAP1; assay: Co-immunoprecipitation in HEK293 cells; type: cell-based; details: Flag-cIAP1 co-transfection, anti-Myc IP
Experimental: FIG. 13 illustrates functional studies of PGAM5 in cells. (A) PGAM5(Δ24) binds XIAP and cIAP1 in vivo. On the left, HEK293 cells were cotransfected with Flag-cIAP1 and PGAM5(FL)-Myc or PGAM5(Δ24)-Myc. Total cell lysates were analyzed by immune-blotting with anti-Flag and anti-Myc antibodies (bottom two panels). Anti-Myc immune-precipitates (IP) were subjected to immunoblot analysis using anti-Myc and anti-Flag antibodies (top two panels). On the right, PGAM5(Δ24)-Myc was transiently expressed in HEK293 cells. 36 hours after transfection, cells were lysed and subjected for Immuno-precipitation with either anti-Myc antibody or an isotype control antibody (mouse IgG). Proteins in the whole cell lysate (bottom three panels) and proteins that bind to the antibody conjugated sepharose beads (top three panels) were assayed with immunoblotting. An asterisk indicates the position of the immunoglobulin heavy chain. (B) XIAP and cIAP1 stimulate PGAM5(Δ24) ubiquitination in vivo. […] 24 hours after transfection, cell viability was measured by Annexin V staining. […] Error bars represent SEM calculated from triplicate experiments. […] Cell viability is then immediately measured by CellTiter-Glo luminescent assay. […] PGAM5 levels are analyzed with anti-Myc immune-blotting before STS treatment. Error bars represent SEM calculated from triplicate samples. […]

T2 sequence (Q13490 whole entry): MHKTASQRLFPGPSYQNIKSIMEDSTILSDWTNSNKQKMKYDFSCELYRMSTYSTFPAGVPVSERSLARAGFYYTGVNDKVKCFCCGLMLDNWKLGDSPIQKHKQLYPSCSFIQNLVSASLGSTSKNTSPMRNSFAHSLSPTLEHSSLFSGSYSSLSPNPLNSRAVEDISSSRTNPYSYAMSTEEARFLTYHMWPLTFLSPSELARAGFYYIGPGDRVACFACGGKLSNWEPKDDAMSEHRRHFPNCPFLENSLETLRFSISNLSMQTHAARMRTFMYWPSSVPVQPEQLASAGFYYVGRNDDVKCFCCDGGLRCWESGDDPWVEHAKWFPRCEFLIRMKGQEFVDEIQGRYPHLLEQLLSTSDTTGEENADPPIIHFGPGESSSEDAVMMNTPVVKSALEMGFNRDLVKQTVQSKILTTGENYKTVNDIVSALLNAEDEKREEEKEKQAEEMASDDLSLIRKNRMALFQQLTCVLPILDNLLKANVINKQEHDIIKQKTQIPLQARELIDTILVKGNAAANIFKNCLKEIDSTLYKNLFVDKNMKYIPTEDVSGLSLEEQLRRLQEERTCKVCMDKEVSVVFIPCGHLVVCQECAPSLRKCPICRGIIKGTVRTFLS
T1 sequence (P98170 whole entry): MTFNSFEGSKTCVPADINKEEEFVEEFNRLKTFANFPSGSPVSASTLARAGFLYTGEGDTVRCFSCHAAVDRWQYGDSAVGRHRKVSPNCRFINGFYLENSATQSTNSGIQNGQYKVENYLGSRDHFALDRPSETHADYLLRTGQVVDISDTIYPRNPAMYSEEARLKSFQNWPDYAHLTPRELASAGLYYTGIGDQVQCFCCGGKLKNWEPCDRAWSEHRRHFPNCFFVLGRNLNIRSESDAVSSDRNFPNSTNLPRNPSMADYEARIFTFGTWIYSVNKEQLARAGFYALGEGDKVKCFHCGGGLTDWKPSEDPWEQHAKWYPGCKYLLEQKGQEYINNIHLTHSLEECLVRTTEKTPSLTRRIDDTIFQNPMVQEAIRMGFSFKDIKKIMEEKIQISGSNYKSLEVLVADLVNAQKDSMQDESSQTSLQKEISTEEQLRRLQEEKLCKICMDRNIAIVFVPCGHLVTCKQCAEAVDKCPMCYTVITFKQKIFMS
XIAP, sequence (P98170 whole entry): as above

Molecule: CC(C)C[C@@H](C=O)NC(=O)[C@H](CC(C)C)NC(=O)[C@H](CC(C)C)NC(=O)OCc1ccccc1 [MG132] (Cbz-Leu-Leu-Leu-aldehyde)
- level of ubiquitination of PGAM5(Δ24) [1]: increased

Molecule: CN[C@@H]1C[C@H]2O[C@@](C)([C@@H]1OC)n1c3ccccc3c3c4c(c5c6ccccc6n2c5c31)C(=O)NC4 [STS, staurosporin]
- cytosolic level of PGAM5(Δ24) [2]: significant increase in PGAM5(Δ24)

- binding to XIAP (pull down) [3]: pulled down
- ubiquitination by XIAP [4]: ubiquitinates
- ubiquitination by cIAP1 [5]: ubiquitinates
- binding to cellular cIAP1 [6]: specifically binds
B1: PGAM5(Δ24): cleaved form of PGAM5 lacking the first 24 residues, neo-IBM sequence starting with Ala25 (protein, UniProt Q96HS1 25-289, looked up, fragment)
chain: AVAVGKPRAGGDAEPRPAEPPAWAGGARPGPGVWDPNWDRREPLSLINVRKRNVESGEEELASKLDHYKAKATRHIFLIRHSQYHVDGSLEKDRTLTPLGREQAELTGLRLASLGLKFNKIVHSSMTRAIETTDIISRHLPGVCKVSTDLLREGAPIEPDPPVSHWKPEAVQYYEDGARIEAAFRNYIHRADARQEEDSYEIFICHANVIRYIVCRALQFPPEGWLRLSLNNGSITHLVIRPNGRVALRTLGDTGFMPPDKITRS
